Data published in US20090214553A1.

Target: human CTLA-4-murine Ig fusion protein (human) (UniProt P16410)
Experiment: sandwich ELISA on the CTLA4-muIg standard with the blocking pair BNI3 (coated) and biotinylated AS-33 (detecting)

- limit of sensitivity: 6.25 ng/mL
Substance: BNI3, CTLA-4 blocking mouse IgG2a mAb (antibody)
